Experimental data published in patent US20160272683A1 (Novo Nordisk, published 2016).
One block for each binder: values may come before it. Numbered stars: 1 amine (or outer) side, 2 acyl side, 3 side chain; on linkers, the order of the positions; unused ones are H or OH. * marks the point of attachment. C20 diacid = O=C(O)CCCCCCCCCCCCCCCCCCC(=O)*; C18 diacid = O=C(O)CCCCCCCCCCCCCCCCC(=O)*; γGlu = O=C(O)[C@H](CCC(=O)[*:2])N[*:1]

Biological target: T1, human amylin receptor (human calcitonin receptor + human RAMP3) (human) (UniProt P30988)
T1 sequence (looked up) 1: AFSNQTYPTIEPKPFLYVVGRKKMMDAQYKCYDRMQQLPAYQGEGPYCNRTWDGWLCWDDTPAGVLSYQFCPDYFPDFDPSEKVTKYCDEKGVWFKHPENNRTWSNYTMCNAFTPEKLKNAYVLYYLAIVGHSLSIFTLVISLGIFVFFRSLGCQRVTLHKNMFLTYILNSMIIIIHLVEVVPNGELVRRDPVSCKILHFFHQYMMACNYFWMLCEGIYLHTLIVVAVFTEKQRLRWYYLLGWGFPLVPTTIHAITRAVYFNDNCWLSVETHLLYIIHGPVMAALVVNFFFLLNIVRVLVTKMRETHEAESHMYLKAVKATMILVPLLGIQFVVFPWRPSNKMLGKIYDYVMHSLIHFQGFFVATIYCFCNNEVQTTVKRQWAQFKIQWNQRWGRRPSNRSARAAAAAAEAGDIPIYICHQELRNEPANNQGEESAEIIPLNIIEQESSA
T1 sequence (looked up) 2: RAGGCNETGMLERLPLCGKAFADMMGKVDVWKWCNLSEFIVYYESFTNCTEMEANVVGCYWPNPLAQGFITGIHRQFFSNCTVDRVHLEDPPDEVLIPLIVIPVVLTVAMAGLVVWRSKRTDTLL
Experiment: whole-cell competition vs 125I-rat amylin (Assay Va)

IC50: 1.89 nM
B1: [N-terminal(C20 diacid-gGlu), des1, 30S, 31G, 33A]mimylin (peptide)
peptide: {C20 diacid-γGlu}-ASELSTAALGRLSAELHELATLPRTETGSGSA-NH2
SMILES: CC(C)C[C@H](NC(=O)[C@H](C)NC(=O)[C@H](C)NC(=O)[C@@H](NC(=O)[C@H](CO)NC(=O)[C@H](CC(C)C)NC(=O)[C@H](CCC(=O)O)NC(=O)[C@H](CO)NC(=O)[C@H](C)NC(=O)CC[C@H](NC(=O)CCCCCCCCCCCCCCCCCCC(=O)O)C(=O)O)[C@@H](C)O)C(=O)NCC(=O)N[C@@H](CCCNC(=N)N)C(=O)N[C@@H](CC(C)C)C(=O)N[C@@H](CO)C(=O)N[C@@H](C)C(=O)N[C@@H](CCC(=O)O)C(=O)N[C@@H](CC(C)C)C(=O)N[C@@H](Cc1c[nH]cn1)C(=O)N[C@@H](CCC(=O)O)C(=O)N[C@@H](CC(C)C)C(=O)N[C@@H](C)C(=O)N[C@H](C(=O)N[C@@H](CC(C)C)C(=O)N1CCC[C@H]1C(=O)N[C@@H](CCCNC(=N)N)C(=O)N[C@H](C(=O)N[C@@H](CCC(=O)O)C(=O)N[C@H](C(=O)NCC(=O)N[C@@H](CO)C(=O)NCC(=O)N[C@@H](CO)C(=O)N[C@@H](C)C(N)=O)[C@@H](C)O)[C@@H](C)O)[C@@H](C)O

IC50: 0.606 nM
B2: [N-terminal(C20 diacid-gGlu), des1, 30T, 31G, 32T]mimylin (peptide)
peptide: {C20 diacid-γGlu}-ASELSTAALGRLSAELHELATLPRTETGTGTP-NH2
SMILES: CC(C)C[C@H](NC(=O)[C@H](C)NC(=O)[C@H](C)NC(=O)[C@@H](NC(=O)[C@H](CO)NC(=O)[C@H](CC(C)C)NC(=O)[C@H](CCC(=O)O)NC(=O)[C@H](CO)NC(=O)[C@H](C)NC(=O)CC[C@H](NC(=O)CCCCCCCCCCCCCCCCCCC(=O)O)C(=O)O)[C@@H](C)O)C(=O)NCC(=O)N[C@@H](CCCNC(=N)N)C(=O)N[C@@H](CC(C)C)C(=O)N[C@@H](CO)C(=O)N[C@@H](C)C(=O)N[C@@H](CCC(=O)O)C(=O)N[C@@H](CC(C)C)C(=O)N[C@@H](Cc1c[nH]cn1)C(=O)N[C@@H](CCC(=O)O)C(=O)N[C@@H](CC(C)C)C(=O)N[C@@H](C)C(=O)N[C@H](C(=O)N[C@@H](CC(C)C)C(=O)N1CCC[C@H]1C(=O)N[C@@H](CCCNC(=N)N)C(=O)N[C@H](C(=O)N[C@@H](CCC(=O)O)C(=O)N[C@H](C(=O)NCC(=O)N[C@H](C(=O)NCC(=O)N[C@H](C(=O)N1CCC[C@H]1C(N)=O)[C@@H](C)O)[C@@H](C)O)[C@@H](C)O)[C@@H](C)O)[C@@H](C)O

IC50: 4.07 nM
B3: [N-terminal(C20 diacid-gGlu), des1, 30S, 31G, 33S]mimylin (peptide)
peptide: {C20 diacid-γGlu}-ASELSTAALGRLSAELHELATLPRTETGSGSS-NH2
SMILES: CC(C)C[C@H](NC(=O)[C@H](C)NC(=O)[C@H](C)NC(=O)[C@@H](NC(=O)[C@H](CO)NC(=O)[C@H](CC(C)C)NC(=O)[C@H](CCC(=O)O)NC(=O)[C@H](CO)NC(=O)[C@H](C)NC(=O)CC[C@H](NC(=O)CCCCCCCCCCCCCCCCCCC(=O)O)C(=O)O)[C@@H](C)O)C(=O)NCC(=O)N[C@@H](CCCNC(=N)N)C(=O)N[C@@H](CC(C)C)C(=O)N[C@@H](CO)C(=O)N[C@@H](C)C(=O)N[C@@H](CCC(=O)O)C(=O)N[C@@H](CC(C)C)C(=O)N[C@@H](Cc1c[nH]cn1)C(=O)N[C@@H](CCC(=O)O)C(=O)N[C@@H](CC(C)C)C(=O)N[C@@H](C)C(=O)N[C@H](C(=O)N[C@@H](CC(C)C)C(=O)N1CCC[C@H]1C(=O)N[C@@H](CCCNC(=N)N)C(=O)N[C@H](C(=O)N[C@@H](CCC(=O)O)C(=O)N[C@H](C(=O)NCC(=O)N[C@@H](CO)C(=O)NCC(=O)N[C@@H](CO)C(=O)N[C@@H](CO)C(N)=O)[C@@H](C)O)[C@@H](C)O)[C@@H](C)O

IC50: 0.608 nM
B4: [N-terminal(C20 diacid-gGlu), des1, 25H, 30S, 31G]mimylin (peptide)
peptide: {C20 diacid-γGlu}-ASELSTAALGRLSAELHELATLPHTETGSGSP-NH2
SMILES: CC(C)C[C@H](NC(=O)[C@H](C)NC(=O)[C@H](C)NC(=O)[C@@H](NC(=O)[C@H](CO)NC(=O)[C@H](CC(C)C)NC(=O)[C@H](CCC(=O)O)NC(=O)[C@H](CO)NC(=O)[C@H](C)NC(=O)CC[C@H](NC(=O)CCCCCCCCCCCCCCCCCCC(=O)O)C(=O)O)[C@@H](C)O)C(=O)NCC(=O)N[C@@H](CCCNC(=N)N)C(=O)N[C@@H](CC(C)C)C(=O)N[C@@H](CO)C(=O)N[C@@H](C)C(=O)N[C@@H](CCC(=O)O)C(=O)N[C@@H](CC(C)C)C(=O)N[C@@H](Cc1c[nH]cn1)C(=O)N[C@@H](CCC(=O)O)C(=O)N[C@@H](CC(C)C)C(=O)N[C@@H](C)C(=O)N[C@H](C(=O)N[C@@H](CC(C)C)C(=O)N1CCC[C@H]1C(=O)N[C@@H](Cc1c[nH]cn1)C(=O)N[C@H](C(=O)N[C@@H](CCC(=O)O)C(=O)N[C@H](C(=O)NCC(=O)N[C@@H](CO)C(=O)NCC(=O)N[C@@H](CO)C(=O)N1CCC[C@H]1C(N)=O)[C@@H](C)O)[C@@H](C)O)[C@@H](C)O

IC50: 22 nM
B5: [N-terminal(C18 diacid-gGlu), des1, 30S, 31G, 32P]mimylin (peptide)
peptide: {C18 diacid-γGlu}-ASELSTAALGRLSAELHELATLPRTETGSGPP-NH2
SMILES: CC(C)C[C@H](NC(=O)[C@H](C)NC(=O)[C@H](C)NC(=O)[C@@H](NC(=O)[C@H](CO)NC(=O)[C@H](CC(C)C)NC(=O)[C@H](CCC(=O)O)NC(=O)[C@H](CO)NC(=O)[C@H](C)NC(=O)CC[C@H](NC(=O)CCCCCCCCCCCCCCCCC(=O)O)C(=O)O)[C@@H](C)O)C(=O)NCC(=O)N[C@@H](CCCNC(=N)N)C(=O)N[C@@H](CC(C)C)C(=O)N[C@@H](CO)C(=O)N[C@@H](C)C(=O)N[C@@H](CCC(=O)O)C(=O)N[C@@H](CC(C)C)C(=O)N[C@@H](Cc1c[nH]cn1)C(=O)N[C@@H](CCC(=O)O)C(=O)N[C@@H](CC(C)C)C(=O)N[C@@H](C)C(=O)N[C@H](C(=O)N[C@@H](CC(C)C)C(=O)N1CCC[C@H]1C(=O)N[C@@H](CCCNC(=N)N)C(=O)N[C@H](C(=O)N[C@@H](CCC(=O)O)C(=O)N[C@H](C(=O)NCC(=O)N[C@@H](CO)C(=O)NCC(=O)N1CCC[C@H]1C(=O)N1CCC[C@H]1C(N)=O)[C@@H](C)O)[C@@H](C)O)[C@@H](C)O

IC50: 3.05 nM
B6: [N-terminal(C20 diacid-gGlu), des1, 30S, 31G, 33L]mimylin (peptide)
peptide: {C20 diacid-γGlu}-ASELSTAALGRLSAELHELATLPRTETGSGSL-NH2
SMILES: CC(C)C[C@H](NC(=O)[C@H](CO)NC(=O)CNC(=O)[C@H](CO)NC(=O)CNC(=O)[C@@H](NC(=O)[C@H](CCC(=O)O)NC(=O)[C@@H](NC(=O)[C@H](CCCNC(=N)N)NC(=O)[C@@H]1CCCN1C(=O)[C@H](CC(C)C)NC(=O)[C@@H](NC(=O)[C@H](C)NC(=O)[C@H](CC(C)C)NC(=O)[C@H](CCC(=O)O)NC(=O)[C@H](Cc1c[nH]cn1)NC(=O)[C@H](CC(C)C)NC(=O)[C@H](CCC(=O)O)NC(=O)[C@H](C)NC(=O)[C@H](CO)NC(=O)[C@H](CC(C)C)NC(=O)[C@H](CCCNC(=N)N)NC(=O)CNC(=O)[C@H](CC(C)C)NC(=O)[C@H](C)NC(=O)[C@H](C)NC(=O)[C@@H](NC(=O)[C@H](CO)NC(=O)[C@H](CC(C)C)NC(=O)[C@H](CCC(=O)O)NC(=O)[C@H](CO)NC(=O)[C@H](C)NC(=O)CC[C@H](NC(=O)CCCCCCCCCCCCCCCCCCC(=O)O)C(=O)O)[C@@H](C)O)[C@@H](C)O)[C@@H](C)O)[C@@H](C)O)C(N)=O

IC50: 4.36 nM
B7: [N-terminal(C20 diacid-gGlu), des1, 30S, 31G, 33G]mimylin (peptide)
peptide: {C20 diacid-γGlu}-ASELSTAALGRLSAELHELATLPRTETGSGSG-NH2
SMILES: CC(C)C[C@H](NC(=O)[C@H](C)NC(=O)[C@H](C)NC(=O)[C@@H](NC(=O)[C@H](CO)NC(=O)[C@H](CC(C)C)NC(=O)[C@H](CCC(=O)O)NC(=O)[C@H](CO)NC(=O)[C@H](C)NC(=O)CC[C@H](NC(=O)CCCCCCCCCCCCCCCCCCC(=O)O)C(=O)O)[C@@H](C)O)C(=O)NCC(=O)N[C@@H](CCCNC(=N)N)C(=O)N[C@@H](CC(C)C)C(=O)N[C@@H](CO)C(=O)N[C@@H](C)C(=O)N[C@@H](CCC(=O)O)C(=O)N[C@@H](CC(C)C)C(=O)N[C@@H](Cc1c[nH]cn1)C(=O)N[C@@H](CCC(=O)O)C(=O)N[C@@H](CC(C)C)C(=O)N[C@@H](C)C(=O)N[C@H](C(=O)N[C@@H](CC(C)C)C(=O)N1CCC[C@H]1C(=O)N[C@@H](CCCNC(=N)N)C(=O)N[C@H](C(=O)N[C@@H](CCC(=O)O)C(=O)N[C@H](C(=O)NCC(=O)N[C@@H](CO)C(=O)NCC(=O)N[C@@H](CO)C(=O)NCC(N)=O)[C@@H](C)O)[C@@H](C)O)[C@@H](C)O

IC50: 1.36 nM
B8: [N-terminal(C20 diacid-gGlu), des1, 30S, 31G, 33F]mimylin (peptide)
peptide: {C20 diacid-γGlu}-ASELSTAALGRLSAELHELATLPRTETGSGSF-NH2
SMILES: CC(C)C[C@H](NC(=O)[C@H](C)NC(=O)[C@H](C)NC(=O)[C@@H](NC(=O)[C@H](CO)NC(=O)[C@H](CC(C)C)NC(=O)[C@H](CCC(=O)O)NC(=O)[C@H](CO)NC(=O)[C@H](C)NC(=O)CC[C@H](NC(=O)CCCCCCCCCCCCCCCCCCC(=O)O)C(=O)O)[C@@H](C)O)C(=O)NCC(=O)N[C@@H](CCCNC(=N)N)C(=O)N[C@@H](CC(C)C)C(=O)N[C@@H](CO)C(=O)N[C@@H](C)C(=O)N[C@@H](CCC(=O)O)C(=O)N[C@@H](CC(C)C)C(=O)N[C@@H](Cc1c[nH]cn1)C(=O)N[C@@H](CCC(=O)O)C(=O)N[C@@H](CC(C)C)C(=O)N[C@@H](C)C(=O)N[C@H](C(=O)N[C@@H](CC(C)C)C(=O)N1CCC[C@H]1C(=O)N[C@@H](CCCNC(=N)N)C(=O)N[C@H](C(=O)N[C@@H](CCC(=O)O)C(=O)N[C@H](C(=O)NCC(=O)N[C@@H](CO)C(=O)NCC(=O)N[C@@H](CO)C(=O)N[C@@H](Cc1ccccc1)C(N)=O)[C@@H](C)O)[C@@H](C)O)[C@@H](C)O
